The record followed here is the supplement of paper PMC7877785.

This series is described as follows: self-splicing fitness, log relative to wild type (ln ratio); higher = more splicing; Tetrahymena group I intron in knt gene, E. coli kanamycin selection, DiMSum; sequences stand for … in CUCUCU…GGAGGGAAAAGUUAUCAGGCAUGCACCUGGUAGCUAGUCUUUAAACCAAUAGAUUGCAUCGGUUUAAAAGGCAAGACCGUCAAAUUGCGGGAAAGGGGUCAACAGCCGUUCAGUACCAAGUCUCAGGGGAAACUUUGAGAUGGCCUUGCAAAGGGUAUGGUAAUAAGCUGACGGACAUGGUCCUAACCACGCAGCCAAGUCCUAAGUCAACAGAUCUUCUGUUGAUAUGGAUGCAGUUCACAGACUAAAUGUCGGUCGGGGAAGAUGUAUUCUUCUCAUAAGAUAUAGUCGGACCUCUCCUUAAUGGGAGCUAGCGGAUGAAGUGAUGCAACACUGGAGCCGCUGGGAACUAAUUUGUAUGCGAAAGUAUAUUGAUUAGUUUUGGAGUACUCGUGGUCG
The method in brief: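 The eight P1ex-region nucleotides of an intron in the knt kanamycin-resistance gene on pET-22b(+) were all randomised and the library put into E. coli BL21(DE3). Six replicate transformations were grown overnight at 37°C or 30°C on LB agar with or without 25 μg/mL kanamycin, together with 100 μg/mL carbenicillin, 50 μM IPTG and 0.2% rhamnose. Colonies were pooled and amplicon-sequenced on an Illumina HiSeq 2500. Fitness from DiMSum is the error-weighted combination of wild-type-normalised replicate fold changes, kanamycin over none.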

± gives the uncertainty stated by the source.

As for AUACAGCAAUAUUACGCACU, the “self-splicing fitness (ln)” value is -0.66 ± 0.11 (30 °C) and 0.0538 ± 0.14 (37 °C).

In the case of AAGUAGCAAUAUUACGAUCU, the “self-splicing fitness (ln)” value was -0.032 ± 0.1 (30 °C) and 0.3 ± 0.13 (37 °C).

Consider GAGGAGCAAUAUUACGUAGU, for which the “self-splicing fitness (ln)” value runs as follows: (30 °C) -2.29 ± 0.19; (37 °C) -2.19 ± 0.3.

For the sequence GCACAGCAAUAUUACGCGAU, the “self-splicing fitness (ln)” value reads like this: (30 °C) -2.12 ± 0.16; (37 °C) -1.55 ± 0.15.

For AGAGAGCAAUAUUACGCGCA, the “self-splicing fitness (ln)” value is, setting by setting: (30 °C) -3 ± 0.36; (37 °C) -1.74 ± 0.14.

For the sequence CCAAAGCAAUAUUACGUUAA, the “self-splicing fitness (ln)” value (30 °C) is -3.93 ± 0.26 and the “self-splicing fitness (ln)” value (37 °C) was -1.97 ± 0.22.

Turning to AAGAAGCAAUAUUACGCAUG, the “self-splicing fitness (ln)” value (30 °C) is -1.63 ± 0.13 and the “self-splicing fitness (ln)” value (37 °C) is -0.526 ± 0.13.

On to UGACAGCAAUAUUACGUGAC, for which the “self-splicing fitness (ln)” value runs as follows: (30 °C) -2.64 ± 0.12; (37 °C) -1.37 ± 0.19.

GUUAAGCAAUAUUACGAUCG: the “self-splicing fitness (ln)” value by setting is: (30 °C) -2.08 ± 0.25; (37 °C) -1.18 ± 0.22.

As to AUUAAGCAAUAUUACGAGGA, the “self-splicing fitness (ln)” value (30 °C) is -3.01 ± 0.28 and the “self-splicing fitness (ln)” value (37 °C) is -0.871 ± 0.19.

As for UCCGAGCAAUAUUACGUAAG, the “self-splicing fitness (ln)” value by setting is: (30 °C) -4.92 ± 0.38; (37 °C) -2.13 ± 0.25.

For AAAGAGCAAUAUUACGGAAA, the “self-splicing fitness (ln)” value (30 °C) was -2.38 ± 0.26 and the “self-splicing fitness (ln)” value (37 °C) is -2.53 ± 0.41.

For UUUCAGCAAUAUUACGCCAG, the “self-splicing fitness (ln)” value runs as follows: (30 °C) -1.4 ± 0.31; (37 °C) -0.498 ± 0.24.

On to UAUCAGCAAUAUUACGCAUC, for which the “self-splicing fitness (ln)” value is, setting by setting: (30 °C) -1.87 ± 0.085; (37 °C) -0.409 ± 0.12.

With CACGAGCAAUAUUACGAUUC, the “self-splicing fitness (ln)” value (30 °C) was -3.44 ± 0.15 and the “self-splicing fitness (ln)” value (37 °C) was -2.49 ± 0.17.

As to CCGAAGCAAUAUUACGAACA, the “self-splicing fitness (ln)” value (37 °C) is -2.58 ± 0.41.

For AGUGAGCAAUAUUACGACCA, the “self-splicing fitness (ln)” value by setting is: (30 °C) -1.79 ± 0.26; (37 °C) -1.52 ± 0.48.

As for UGCGAGCAAUAUUACGAGUG, the “self-splicing fitness (ln)” value runs as follows: (30 °C) -2.85 ± 0.17; (37 °C) -2.32 ± 0.28.

Regarding AAAUAGCAAUAUUACGCUCG, the “self-splicing fitness (ln)” value (30 °C) is -0.663 ± 0.12 and the “self-splicing fitness (ln)” value (37 °C) is -0.925 ± 0.15.

Regarding GUAGAGCAAUAUUACGUCUC, the “self-splicing fitness (ln)” value by setting is: (30 °C) -0.285 ± 0.092; (37 °C) -0.305 ± 0.099.

Turning to GUUGAGCAAUAUUACGUGCU, the “self-splicing fitness (ln)” value (30 °C) is -1.95 ± 0.35.

In the case of AUGUAGCAAUAUUACGAUUC, the “self-splicing fitness (ln)” value runs as follows: (30 °C) -2.52 ± 0.31; (37 °C) -1.12 ± 0.33.

With GAGCAGCAAUAUUACGGUAC, the “self-splicing fitness (ln)” value is, setting by setting: (30 °C) -2.73 ± 0.14; (37 °C) -0.416 ± 0.11.

Consider CCGUAGCAAUAUUACGGCGG, for which the “self-splicing fitness (ln)” value is -4.06 ± 0.3 (30 °C) and -2.97 ± 0.26 (37 °C).

For the sequence AAGCAGCAAUAUUACGAUGC, the “self-splicing fitness (ln)” value runs as follows: (30 °C) -1.38 ± 0.11; (37 °C) -0.411 ± 0.13.

UGCCAGCAAUAUUACGGCGC: the “self-splicing fitness (ln)” value reads like this: (30 °C) -3.8 ± 0.27; (37 °C) -3.04 ± 0.23.

On to CAGGAGCAAUAUUACGAUAC, for which the “self-splicing fitness (ln)” value (30 °C) was -2.81 ± 0.4.

Turning to GGGCAGCAAUAUUACGGCAU, the “self-splicing fitness (ln)” value was 0.216 ± 0.12 (30 °C) and -0.928 ± 0.12 (37 °C).

Take GGGGAGCAAUAUUACGAUGA: the “self-splicing fitness (ln)” value reads like this: (30 °C) -2.02 ± 0.3; (37 °C) -2.57 ± 0.37.

UGUUAGCAAUAUUACGUGAA: the “self-splicing fitness (ln)” value reads like this: (30 °C) -2.38 ± 0.16; (37 °C) -1.07 ± 0.13.

Turning to UUGGAGCAAUAUUACGGCUU, the “self-splicing fitness (ln)” value was -1.18 ± 0.46 (30 °C) and -2.15 ± 0.48 (37 °C).

On to CACUAGCAAUAUUACGGGAA, for which the “self-splicing fitness (ln)” value by setting is: (30 °C) -2.2 ± 0.18; (37 °C) -2.29 ± 0.17.

For UUACAGCAAUAUUACGACUG, the “self-splicing fitness (ln)” value is -1.26 ± 0.08 (30 °C) and -1.81 ± 0.12 (37 °C).

With AUGCAGCAAUAUUACGAGGG, the “self-splicing fitness (ln)” value (30 °C) is -2.51 ± 0.15 and the “self-splicing fitness (ln)” value (37 °C) was -3.09 ± 0.26.

Take CUACAGCAAUAUUACGCCGU: the “self-splicing fitness (ln)” value (30 °C) is -3.2 ± 0.19 and the “self-splicing fitness (ln)” value (37 °C) was -2.06 ± 0.29.

On to CACUAGCAAUAUUACGUGUC, for which the “self-splicing fitness (ln)” value is, setting by setting: (30 °C) -3.71 ± 0.14; (37 °C) -2.93 ± 0.15.

Take AAGAAGCAAUAUUACGAGCC: the “self-splicing fitness (ln)” value runs as follows: (30 °C) -2.58 ± 0.2; (37 °C) -2.58 ± 0.29.

Consider ACCGAGCAAUAUUACGGUGC, for which the “self-splicing fitness (ln)” value runs as follows: (30 °C) -2.97 ± 0.21; (37 °C) -3.33 ± 0.37.

As to ACCGAGCAAUAUUACGUGGG, the “self-splicing fitness (ln)” value is -2.62 ± 0.18 (30 °C) and -2.87 ± 0.2 (37 °C).

Take GCUUAGCAAUAUUACGUACC: the “self-splicing fitness (ln)” value is, setting by setting: (30 °C) -0.204 ± 0.2; (37 °C) 1.1 ± 0.21.

For UACCAGCAAUAUUACGAAUU, the “self-splicing fitness (ln)” value reads like this: (30 °C) -2.55 ± 0.17; (37 °C) -1.96 ± 0.2.

UACGAGCAAUAUUACGGCCU: the “self-splicing fitness (ln)” value runs as follows: (30 °C) -3.35 ± 0.18; (37 °C) -3.77 ± 0.46.

Regarding UUACAGCAAUAUUACGUAGC, the “self-splicing fitness (ln)” value reads like this: (30 °C) -3.65 ± 0.3; (37 °C) -2.92 ± 0.27.

With AACAAGCAAUAUUACGUAGU, the “self-splicing fitness (ln)” value is -2.37 ± 0.11 (30 °C) and -1.47 ± 0.12 (37 °C).

As for CUUAAGCAAUAUUACGGGGG, the “self-splicing fitness (ln)” value by setting is: (30 °C) -3.65 ± 0.2; (37 °C) -1.26 ± 0.23.

With CCGUAGCAAUAUUACGAUUG, the “self-splicing fitness (ln)” value (30 °C) is -0.486 ± 0.064 and the “self-splicing fitness (ln)” value (37 °C) was -0.0224 ± 0.082.

Turning to UACCAGCAAUAUUACGUAGC, the “self-splicing fitness (ln)” value by setting is: (30 °C) -2.38 ± 0.11; (37 °C) -1.72 ± 0.14.

Consider CGUAAGCAAUAUUACGCGCC, for which the “self-splicing fitness (ln)” value (37 °C) was -1.97 ± 0.35.

For the sequence GAGUAGCAAUAUUACGAUUC, the “self-splicing fitness (ln)” value is -0.85 ± 0.18 (30 °C) and -0.0237 ± 0.24 (37 °C).

In the case of UGUUAGCAAUAUUACGGACU, the “self-splicing fitness (ln)” value (30 °C) was -0.161 ± 0.079 and the “self-splicing fitness (ln)” value (37 °C) turned out to be 0.414 ± 0.093.

With UGUAAGCAAUAUUACGCCGA, the “self-splicing fitness (ln)” value is, setting by setting: (30 °C) -1.5 ± 0.14; (37 °C) -1.63 ± 0.18.

Consider CUAUAGCAAUAUUACGGGCC, for which the “self-splicing fitness (ln)” value (30 °C) is -1.54 ± 0.36.

GCAAAGCAAUAUUACGAGAU: the “self-splicing fitness (ln)” value is -3.64 ± 0.16 (30 °C) and -2.19 ± 0.12 (37 °C).

Turning to GCACAGCAAUAUUACGCAUU, the “self-splicing fitness (ln)” value runs as follows: (30 °C) -0.442 ± 0.064; (37 °C) 0.276 ± 0.078.

Turning to CCUAAGCAAUAUUACGCGAG, the “self-splicing fitness (ln)” value by setting is: (30 °C) -4.48 ± 0.25; (37 °C) -3.56 ± 0.23.

AUCCAGCAAUAUUACGAUGC: the “self-splicing fitness (ln)” value was -2.01 ± 0.15 (30 °C) and -0.963 ± 0.17 (37 °C).

On to AUCCAGCAAUAUUACGUAGC, for which the “self-splicing fitness (ln)” value was -2.3 ± 0.08 (30 °C) and -1.78 ± 0.11 (37 °C).

As for GAGUAGCAAUAUUACGUAAC, the “self-splicing fitness (ln)” value reads like this: (30 °C) -2.12 ± 0.1; (37 °C) -2.95 ± 0.17.

Regarding UGGCAGCAAUAUUACGUUAA, the “self-splicing fitness (ln)” value reads like this: (30 °C) -1.16 ± 0.084; (37 °C) -0.28 ± 0.084.

CAAAAGCAAUAUUACGAUCC: the “self-splicing fitness (ln)” value by setting is: (30 °C) -2.58 ± 0.22; (37 °C) -1.26 ± 0.24.

Regarding GUGCAGCAAUAUUACGAGCG, the “self-splicing fitness (ln)” value (30 °C) was -0.973 ± 0.072 and the “self-splicing fitness (ln)” value (37 °C) was -0.518 ± 0.083.
